Measurements reported in patent publication US20220411487A1 (Regeneron, published 2022).

T1: full length mouse TMPRSS6 on HEK293 cells (HEK293/mTMPRSS6) (mouse, UniProt Q9DBI0 1-811)
T1 sequence: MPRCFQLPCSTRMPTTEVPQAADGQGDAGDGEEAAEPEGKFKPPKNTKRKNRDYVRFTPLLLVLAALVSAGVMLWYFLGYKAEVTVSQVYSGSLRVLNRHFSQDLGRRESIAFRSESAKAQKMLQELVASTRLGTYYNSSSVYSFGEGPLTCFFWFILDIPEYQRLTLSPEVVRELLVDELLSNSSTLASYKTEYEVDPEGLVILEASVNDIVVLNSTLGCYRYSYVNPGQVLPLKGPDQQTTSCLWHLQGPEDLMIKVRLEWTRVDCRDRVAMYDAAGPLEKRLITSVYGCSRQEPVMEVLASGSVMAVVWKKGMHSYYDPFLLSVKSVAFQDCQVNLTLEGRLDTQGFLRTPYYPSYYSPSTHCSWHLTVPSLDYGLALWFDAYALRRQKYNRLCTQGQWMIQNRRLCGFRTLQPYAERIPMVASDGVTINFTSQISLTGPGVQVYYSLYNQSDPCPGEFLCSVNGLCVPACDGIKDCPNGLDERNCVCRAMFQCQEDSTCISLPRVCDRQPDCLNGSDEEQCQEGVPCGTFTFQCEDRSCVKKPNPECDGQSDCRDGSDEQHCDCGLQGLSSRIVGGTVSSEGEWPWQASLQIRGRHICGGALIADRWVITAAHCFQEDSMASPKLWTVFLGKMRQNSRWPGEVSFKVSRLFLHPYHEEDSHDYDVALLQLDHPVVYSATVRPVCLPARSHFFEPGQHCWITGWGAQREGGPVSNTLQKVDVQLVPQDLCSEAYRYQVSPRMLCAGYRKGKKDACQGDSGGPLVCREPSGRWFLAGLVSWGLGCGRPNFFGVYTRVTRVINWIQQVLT


Experiments:
[1] = target: T1, full length mouse TMPRSS6 on HEK293 …; experiment: cell-based or functional assay
mTMPRSS6_S762A-MMH [2] = target: T2, mTMPRSS6_S762A-MMH (mouse, UniProt Q9DBI0 81-811); experiment: SPR, mAb captured via anti-hFc, 37 C
T2 construct: also called REGN6848; mouse TMPRSS6 extracellular domain with a S762A mutation and a C-terminal myc-myc-hexahistidine tag
Protocol: (§1) The equilibrium dissociation constant (KD) for TMPRSS6 binding to different TMPRSS6 monoclonal antibodies (mAbs) was determined using a real-time surface plasmon resonance biosensor using a Biacore 4000 instrument. All binding studies were performed in 10 mM HEPES, 150 mM NaCl, 3 mM EDTA, and 0.05% v/v Surfactant Tween-20, pH 7.4 (HBS-ET) running buffer at 25° C. and 37° C. The Biacore CM5 sensor chip surface was first derivatized by amine coupling with a human Fc specific mouse mAb to capture different TMPRSS6 mAbs. […] Different concentrations (100 nM to 3.7 nM, 3-fold serial dilution) of the TMPRSS6 reagent proteins prepared in HBS-EP running buffer were injected over the TMPRSS6 mAb captured surface for 150 seconds at a flow rate of 30 μL/min and their dissociation in HBS-ET running buffer was monitored for 10 minutes. At the end of each cycle, the TMPRSS6 mAb captured surface was regenerated using a 12 second injection of 20 mM phosphoric acid.
(§2) The association rate (kₐ) and dissociation rate (kd) were determined by fitting the real-time binding sensorgrams to a 1:1 binding model with mass transport limitation using Scrubber 2.0 (BioLogic Software) curve-fitting software. Binding dissociation equilibrium constant (KD) and dissociative half-life (t½) were calculated from the kinetic rates as: […]

[3] = target: T1, full length mouse TMPRSS6 on HEK293 …; experiment: cell-based or functional assay; remark: listed apart in the source
mTMPRSS6_S762A-MMH [4] = target: T2, mTMPRSS6_S762A-MMH; experiment: SPR, mAb captured via anti-hFc, 25 C
Protocol: as §1, §2

[5] = target: T1, full length mouse TMPRSS6 on HEK293 …; experiment: flow cytometry, HEK293/mTMPRSS6 cells

T2 sequence (Q9DBI0 other isoform, or with tags, fused parts or gaps S762A S762A): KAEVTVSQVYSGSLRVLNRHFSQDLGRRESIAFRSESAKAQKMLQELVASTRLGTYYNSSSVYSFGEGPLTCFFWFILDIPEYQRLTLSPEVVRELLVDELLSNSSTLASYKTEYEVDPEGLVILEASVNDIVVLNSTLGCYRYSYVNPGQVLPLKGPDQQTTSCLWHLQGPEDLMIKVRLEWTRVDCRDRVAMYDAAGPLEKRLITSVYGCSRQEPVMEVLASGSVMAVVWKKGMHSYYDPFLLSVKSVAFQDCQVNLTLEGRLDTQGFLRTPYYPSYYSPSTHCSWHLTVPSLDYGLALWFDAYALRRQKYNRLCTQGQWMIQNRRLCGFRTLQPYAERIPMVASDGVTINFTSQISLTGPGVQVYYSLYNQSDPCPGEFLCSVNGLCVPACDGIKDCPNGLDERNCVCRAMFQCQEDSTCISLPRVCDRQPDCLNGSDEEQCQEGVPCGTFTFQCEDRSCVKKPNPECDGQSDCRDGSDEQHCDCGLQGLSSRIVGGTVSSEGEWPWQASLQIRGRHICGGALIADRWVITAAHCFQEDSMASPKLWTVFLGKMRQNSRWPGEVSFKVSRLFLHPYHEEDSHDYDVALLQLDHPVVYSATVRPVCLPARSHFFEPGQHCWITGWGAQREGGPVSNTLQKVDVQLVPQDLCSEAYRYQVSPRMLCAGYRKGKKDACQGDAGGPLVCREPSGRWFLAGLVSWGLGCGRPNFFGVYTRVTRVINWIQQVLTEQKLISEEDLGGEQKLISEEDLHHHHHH

Row | % inhibition, HEK293 bioassay, 30 min pre-incubation 25 C [1] [%] | IC50, HEK293 bioassay, 30 min pre-incubation 25 C [1] [nM] | 100 nM Ag Bound (mTMPRSS6_S762A-MMH [2]) [RU] | Kd (mTMPRSS6_S762A-MMH [2]) [nM] | koff (mTMPRSS6_S762A-MMH [2]) [s⁻¹] | kon (mTMPRSS6_S762A-MMH [2]) [M⁻¹ s⁻¹] | t½ (mTMPRSS6_S762A-MMH [2]) [min] | % inhibition, HEK293 bioassay, overnight pre-incubation 37 C [3] [%] | IC50, HEK293 bioassay, overnight pre-incubation 37 C [3] [nM] | 100 nM Ag Bound (mTMPRSS6_S762A-MMH [4]) [RU] | Kd (mTMPRSS6_S762A-MMH [4]) [nM] | koff (mTMPRSS6_S762A-MMH [4]) [s⁻¹] | kon (mTMPRSS6_S762A-MMH [4]) [M⁻¹ s⁻¹] | t½ (mTMPRSS6_S762A-MMH [4]) [min] | binding result [5] | binding result (mTMPRSS6_S762A-MMH [4]) | Binder
1 | 88 | 3.6 | 130 | 0.317 | 0.00016 | 505000 | 72 | 103 | 2.1 | 178 | 0.0829 | 3.45e-05 | 416000 | 334 | – | – | REGN7999 (antibody, human IgG4 S228P, kappa, V domains shown, fully human; human IgG4 Fc with hinge S108P; also called mAb41450) VH: EVQLVESGGGLVQPGGSLRLSCAASGFTFSSYAMTWVRQAPGKGLEWVSAISGSDTSTYYADSVKGRFTISRDNSKNTLFLQMNSLRAEDTAVYYCAKHQDYDFSYYYSAMDVWGQGTTVTVSS VL: DIQMTQSPSSLSASVGDRVIITCRASQDFNSWLAWYQQKPGKAPKLLIYAASSLQSGVPSRFSGSGSGTDFTLTISSLQPEDFATYYCQQTDSFPFTFGPGTKVDIKR
2 | – | – | 3 | – | – | – | – | – | – | 3 | – | – | – | – | no binding (tested: 375 nM) | no binding (tested: 100 nM) | REGN7974 (antibody, human IgG4 S228P, kappa, V domains shown, fully human; human IgG4 Fc with hinge S108P; also called mAb41422) VH: EVQLVESGGGLVQPGRSLRLSCIASGFNFGDYGMSWVRQAPGKGLEWVGFIRSKAYGGTTEYAASVKGRFTISRDDSKSIAYLQMNSLKTEDAAMYYCSRDYYDILTGYYGDYWGQGTLVTVSS VL: not shown
3 | 58 | 35 | 9 | 703 | 0.227 | 323000 | 0.05 | 97 | 14 | 20 | 233 | 0.067 | 288000 | 0.17 | – | – | REGN7977 (antibody, V domains shown, fully human; human IgG4 Fc with hinge S108P; also called mAb41465) VH: EVQLVESGGGLVKPGGSLRVSCAASGVTFSNVWMSWVRQVPGKGLEWVGRIKSKTDGGTTDYAAPVKGRFTISKDDSKNTLFLQMNSLKTEDTAVYYCTTETGDFWSGYYPRFQHWGQGTLVTVSS VL: DIQMTQSPSSLSASVGDRVTITCRASQYISTYLNWYQQKPGKAPSLLIYAASSLQSGVPSRFSGSGSGTDFTLTISSLQPEDFASYSCQQSYSTPPYTFGQGTKLEIKR
4 | 82 | 1.5 | 189 | 24.7 | 0.00666 | 269000 | 1.7 | 98 | 1.2 | 209 | 1.84 | 0.0011 | 599000 | 10 | – | – | REGN8023 (antibody, human IgG4 S228P, kappa, V domains shown, fully human; human IgG4 Fc with hinge S108P; also called mAb37699) VH: EVQLVESGGGLVKPGGSLRISCAASGFIFVDYAMHWVRQAPGKGLEWVSGISWNSGSIGYADSVKGRFTISRDNAKKSLYLQMSGLRPEDTALYYCVKSGFYYVRSYFDNWGQGTLVTVSS VL: DIVMTQSPLSLPVTPGEPASISCRSSQSLLDSDDGNTYLDWYLRKPGQSPQLLIYTLSYRASGVPDRFSGSGSGTDFTLKISRVEADDVGVYYCMQRIEFPLTFGGGTKVEIKR
5 | – | – | 2 | – | – | – | – | – | – | 4 | – | – | – | – | no binding (tested: 375 nM) | no binding (tested: 100 nM) | REGN7969 (antibody, human IgG4 S228P, kappa, V domains shown, fully human; human IgG4 Fc with hinge S108P; also called mAb37746) VH: QVQLVESGGGVVQPGRSLRLSCAASGFTFNNYGMHWVRQAPGKGLEWVAIISYDGSNEYYSDSVKGRFTISRDNSKNTLYLQMNSLRAEDTAVYYCARDQDYGGNLFHYWGQGTLVTVSS VL: not shown
6 | – | – | – | – | – | – | – | – | – | – | – | – | – | – | no binding (tested: 375 nM) | – | REGN7971 (antibody, human IgG4 S228P, kappa, V domains shown, fully human; human IgG4 Fc with hinge S108P; also called mAb37763) VH: QVQLVESGGGVVQPGRSLRLSCAASGFTFSTYGMHWVRQAPGKGLEWVAIISYDGSNDYYLDSVKGRFTISRDNSKNTLYLQMNNLRAEDTAVYYCAKDQGYGGNLFASWGQGTLVTVSS VL: not shown
